According to patent EP4682166A1 (Guangzhou Enmai Biotechnology Co., Ltd, dated 2026):

T1: human NMI (N-myc Interacting protein), recombinant protein (human, UniProt Q13287 1-307, limits assumed)
T1 construct: Gene ID: 9111; also called hNMI; antigen
T1 sequence (looked up): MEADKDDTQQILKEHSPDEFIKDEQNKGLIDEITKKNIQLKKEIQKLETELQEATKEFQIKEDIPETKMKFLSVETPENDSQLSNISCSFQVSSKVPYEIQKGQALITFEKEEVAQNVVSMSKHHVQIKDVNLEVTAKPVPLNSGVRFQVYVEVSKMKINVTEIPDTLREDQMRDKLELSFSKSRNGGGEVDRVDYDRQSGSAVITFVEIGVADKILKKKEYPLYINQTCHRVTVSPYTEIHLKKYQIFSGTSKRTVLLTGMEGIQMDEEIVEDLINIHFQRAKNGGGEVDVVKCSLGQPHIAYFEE

B1: 39B4 mutant V109K (VH) (antibody, V domains shown)
VH: QEQLVESGGGLVQPEGSLTLTCTASGFSFSSSYWICWVRQAPGKGLEWIACIYAGTSGSTYYASWAKGRFTISKTSSTTVDLQMNSLTAADTATYFCARAGYYTYGAGKYIYPSSFKLWGPGTLVTVSS
VL: DVVMTQTPASVEAAVGGTVTIKCQASESIGNALAWYQQKPGQPPKLLIYSASNLASGVPSRFSGSGSGTQFTLTISDLECADAATYYCQSYYYSSSSITFGGGTEVVVK
B2: 39B4 mutant Y102F (VH) (antibody, V domains shown)
VH: QEQLVESGGGLVQPEGSLTLTCTASGFSFSSSYWICWVRQAPGKGLEWIACIYAGTSGSTYYASWAKGRFTISKTSSTTVDLQMNSLTAADTATYFCARAGFYTYGAGVYIYPSSFKLWGPGTLVTVSS
VL: DVVMTQTPASVEAAVGGTVTIKCQASESIGNALAWYQQKPGQPPKLLIYSASNLASGVPSRFSGSGSGTQFTLTISDLECADAATYYCQSYYYSSSSITFGGGTEVVVK
B3: 39B4 mutant V109Q (VH) (antibody, V domains shown)
VH: QEQLVESGGGLVQPEGSLTLTCTASGFSFSSSYWICWVRQAPGKGLEWIACIYAGTSGSTYYASWAKGRFTISKTSSTTVDLQMNSLTAADTATYFCARAGYYTYGAGQYIYPSSFKLWGPGTLVTVSS
VL: DVVMTQTPASVEAAVGGTVTIKCQASESIGNALAWYQQKPGQPPKLLIYSASNLASGVPSRFSGSGSGTQFTLTISDLECADAATYYCQSYYYSSSSITFGGGTEVVVK
B4: B-8 mutant G106K (VH) (antibody, V domains shown)
VH: QSLEESGGDLVKPGASLTLTCTASGFSFSSSYYMCWVRQAPGKGLEWIACIYAGSSGSTYYASWAKGRFTISKTSSTTVTLQMTSLTAADTATYFCAREYSYDDYKDFWGFNLWGPGTLVTVSS
VL: ALVMTQTPSSVSAAVGGTVTINCQASQNIYTNLAWYQQKPGQPPKLLIYGASNLESGVPSRFKGSGSGTEYTLTISDLECDDAATYYCQSSLYSRIADRANAFGGGTEVVVK
B5: B-8-3 (antibody, V domains shown)
VH: QSLEESGGDLVKPGASLTLTCTASGFSFSSSYEMCWVRQAPGKGLEWIACIYAGSSGSTYYASWAKGRFTISKTSSTTVTLQMTSLTAADTATYFCAREYSYDDYGDFWGFNLWGPGTLVTVSS
VL: ALVMTQTPSSVSAAVGGTVTINCQASQNIYTNLAWYQQKPGQPPKLLIYGASNLESGVPSRFKGSGSGTEYTLTISDLECDDAATYYCQSSLYSRIADRANAFGGGTEVVVK
notes: also called B-8 Y33E (VH)
B6: B-8 mutant T31V (VL) (antibody, V domains shown)
VH: QSLEESGGDLVKPGASLTLTCTASGFSFSSSYYMCWVRQAPGKGLEWIACIYAGSSGSTYYASWAKGRFTISKTSSTTVTLQMTSLTAADTATYFCAREYSYDDYGDFWGFNLWGPGTLVTVSS
VL: ALVMTQTPSSVSAAVGGTVTINCQASQNIYVNLAWYQQKPGQPPKLLIYGASNLESGVPSRFKGSGSGTEYTLTISDLECDDAATYYCQSSLYSRIADRANAFGGGTEVVVK
B7: B-8-1 (antibody, V domains shown)
VH: QSLEESGGDLVKPGASLTLTCTASGFSFSSSYYMCWVRQAPGKGLEWIACIYAGSSGSTYYASWAKGRFTISKTSSTTVTLQMTSLTAADTATYFCAREYSYDDYGDFWGFNLWGPGTLVTVSS
VL: ALVMTQTPSSVSAAVGGTVTINCQASQNIYTNLAWYQQKPGQPPKLLIYGASNLESGVPSRFKGSGSGTEYTLTISDLECDDAATYYCQSSLESRIADRANAFGGGTEVVVK
notes: also called B-8 Y93E (VL)
B8: B-8-5 (antibody, V domains shown)
VH: QSLEESGGDLVKPGASLTLTCTASGFSFSSSYYMCWVRQAPGKGLEWIACIYAGSSGSTYYASWAKGRFTISKTSSTTVTLQMTSLTAADTATYFCAREYSYDDYGDFWGANLWGPGTLVTVSS
VL: ALVMTQTPSSVSAAVGGTVTINCQASQNIYTNLAWYQQKPGQPPKLLIYGASNLESGVPSRFKGSGSGTEYTLTISDLECDDAATYYCQSSLYSRIADRANAFGGGTEVVVK
notes: also called B-8 F111A (VH)
B9: B-8-4 (antibody, V domains shown)
VH: QSLEESGGDLVKPGASLTLTCTASGFSFSSSYYMCWVRQAPGKGLEWIACIYAGSSGSTYEASWAKGRFTISKTSSTTVTLQMTSLTAADTATYFCAREYSYDDYGDFWGFNLWGPGTLVTVSS
VL: ALVMTQTPSSVSAAVGGTVTINCQASQNIYTNLAWYQQKPGQPPKLLIYGASNLESGVPSRFKGSGSGTEYTLTISDLECDDAATYYCQSSLYSRIADRANAFGGGTEVVVK
notes: also called B-8 Y61E (VH)
B10: B-8 mutant S101Y (VH) (antibody, V domains shown)
VH: QSLEESGGDLVKPGASLTLTCTASGFSFSSSYYMCWVRQAPGKGLEWIACIYAGSSGSTYYASWAKGRFTISKTSSTTVTLQMTSLTAADTATYFCAREYYYDDYGDFWGFNLWGPGTLVTVSS
VL: ALVMTQTPSSVSAAVGGTVTINCQASQNIYTNLAWYQQKPGQPPKLLIYGASNLESGVPSRFKGSGSGTEYTLTISDLECDDAATYYCQSSLYSRIADRANAFGGGTEVVVK
B11: B-8 mutant S101K (VH) (antibody, V domains shown)
VH: QSLEESGGDLVKPGASLTLTCTASGFSFSSSYYMCWVRQAPGKGLEWIACIYAGSSGSTYYASWAKGRFTISKTSSTTVTLQMTSLTAADTATYFCAREYKYDDYGDFWGFNLWGPGTLVTVSS
VL: ALVMTQTPSSVSAAVGGTVTINCQASQNIYTNLAWYQQKPGQPPKLLIYGASNLESGVPSRFKGSGSGTEYTLTISDLECDDAATYYCQSSLYSRIADRANAFGGGTEVVVK
B12: B-8-2 (antibody, V domains shown)
VH: QSLEESGGDLVKPGASLTLTCTASGFSFSSSYYMCWVRQAPGKGLEWIACIYAGSSGSTYYASWAKGRFTISKTSSTTVTLQMTSLTAADTATYFCAREYSYDDYGDFWGFNLWGPGTLVTVSS
VL: ALVMTQTPSSVSAAVGGTVTINCQASQNIYTNLAWYQQKPGQPPKLLIYGASNLESGVPSRFKGSGSGTEYTLTISDLECDDAATYYCQSRLYSRIADRANAFGGGTEVVVK
notes: also called B-8 S91R (VL)

Columns and labels:
[1] = target: T1, human NMI (N-myc Interacting protein), …; test: ELISA EC50 against parent 39B4
[2] = target: T1, human NMI (N-myc Interacting protein), …; test: ELISA EC50 against parent B-8
[3] = target: T1, human NMI (N-myc Interacting protein), …; test: ELISA, binding to hNMI
[4] = target: T1, human NMI (N-myc Interacting protein), …; test: ELISA EC50 against parent B-8; remark: listed apart in the source

Row | Binder | Fold decrease in affinity [1] | Fold decrease in affinity [2] | EC50 [3] | Fold decrease in affinity [4]
1 | B1 | > 500 fold | – | – | –
2 | B2 | > 500 fold | – | – | –
3 | B3 | > 500 fold | – | – | –
4 | B4 | – | > 100 fold | – | –
5 | B5 | – | – | 0.176 nM | 0.57 fold
6 | B6 | – | > 100 fold | – | –
7 | B7 | – | – | 0.698 nM | 2.26 fold
8 | B8 | – | – | 0.238 nM | 0.77 fold
9 | B9 | – | – | 0.177 nM | 0.57 fold
10 | B10 | – | > 500 fold | – | –
11 | B11 | – | > 500 fold | – | –
12 | B12 | – | – | 1.45 nM | 4.68 fold
